{"source": "patent US20230121197A1", "about": "“ANTIBODIES SPECIFICALLY BINDING THE CARBOXYMETHYLATED CATALYTIC SUBUNIT OF PROTEIN PHOSPHATASE 2A” (Medizinische Universität Wien, priority 2020, published 2023)", "molecules": {"B1": {"name": "7C10-C5 monoclonal antibody (antibody, V domains shown)", "VH": "DVQLQESGPGLVKPSQSLSLTCSVTGYSITSGYYWNWIRQFPGNKLEWMGYISYDGSNNYNPSLKNRISITRDTSKNQFFLKLNSVTTEDTATYYCAGRFAYWGQGTLVTVSA", "VL": "DVLMTQTPLSLPVSLGDQASISCRSSQSIVHSNGNTYLEWYLQKPGQSPKLLIYKVSNRFSGVPDRFSGSGSGTDFTLKINRVEAEDLGVYYCFQGSHVPWTFGGGTKLEIK", "notes": "Used as hybridoma culture supernatant (ELISA, Western blot, IHC) or at 50 µg/mL (SPR); also called 7C10 X63; clone 7C10-C5"}, "B2": {"name": "7C10-C5: α-carboxymethylation specific mouse monoclonal IgG1 antibody from single clone hybridoma 7C10-C5 (DSM ACC3350) (antibody)", "heavy": "MYRMQLLSCIALSLALVTNSDVQLQESGPGLVKPSQSLSLTCSVTGYSITSGYYWNWIRQFPGNKLEWMGYISYDGSNNYNPSLKNRISITRDTSKNQFFLKLNSVTTEDTATYYCAGRFAYWGQGTLVTVSAAKTTAPSVYPLAPVCGDTTGSSVTLGCLVKGYFPEPVTLTWNSGSLSSGVHTFPAVLQSDLYTLSSSVTVTSSTWPSQSITCNVAHPASSTKVDKKIEPRGPTIKPCPPCKCPAPNLLGGPSVFIFPPKIKDVLMISLSPIVTCVVVDVSEDDPDVQISWFVNNVEVHTAQTQTHREDYNSTLRVVSALPIQHQDWMSGKEFKCKVNNKDLPAPIERTISKPKGSVRAPQVYVLPPPEEEMTKKQVTLTCMVTDFMPEDIYVEWTNNGKTELNYKNTEPVLDSDGSYFMYSKLRVEKKNWVERNSYSCSVVHEGLHNHHTTKSFSRTPGK", "light": "MDMRVPAQLLGLLLLWLSGARCDVLMTQTPLSLPVSLGDQASISCRSSQSIVHSNGNTYLEWYLQKPGQSPKLLIYKVSNRFSGVPDRFSGSGSGTDFTLKINRVEAEDLGVYYCFQGSHVPWTFGGGTKLEIKADAAPTVSIFPPSSEQLTSGGASVVCFLNNFYPKDINVKWKIDGSERQNGVLNSWTDQDSKDSTYSMSSTLTLTKDEYERHNSYTCEATHKTSTSPIVKSFNRNEC", "modifications": "Amino acid sequence of the recombinant 7C10-C5 heavy chain; Amino acid sequence of the recombinant 7C10-C5 light chain"}}, "key": {"[1]": {"target": "T1, PP4c C-terminal peptide meL307, ac-PSKKPVADYFL-CH3 (α-carboxymethylated) (human, SMILES …)", "T1 construct": "also called mePP4c; PP4 Me", "T1 peptide": "Ac-PSKKPVADYFL-OMe", "assay": "SPR (Biacore T200), antibody captured, peptide 50-800 nM as analyte, steady state analysis, 25 °C; SPR steady state; antibody captured at 50 µg/ml, PP4 Me peptide 50-800 nM as analyte", "method": "(§1) The differential affinity of anti-carboxymethylated PP2Ac antibodies, 7C10-C5 and 2A10, to carboxymethylated PP2A catalytic subunit versus noncarboxymethylated PP2A catalytic subunit was determined by surface plasmon resonance (SPR) on a Biacore T200 (GE Healthcare) at the Core Facility Biomolecular & Cellular Analysis (University of Natural Resources and Life Sciences Vienna BOKU). The affinity of 7C10-C5 for carboxymethylated and noncarboxymethylated catalytic subunit of PP4 (PP4c), a PP2A-related phosphatase, was also determined.\nSeries S Sensor Chip CM5 (GE Healthcare, 10296958) Flow cells (e.g. Flow cells 3 and 4 for the data shown in Table 5 and FIG. 32) were coated with 30 μg/mL anti-mouse IgG antibody (in immobilization buffer) using the mouse antibody capture kit (GE Healthcare, BR-1008-38, Lot 10294578) via amine coupling according to the manufacturer's protocol (i.e. https://www.cytivalifesciences. com/en/us/shop/protein-analysis/spr-lab el-free-analysis/capture-reagents/mouse-antibody-capture-kit-p-05986). The immobilisation levels obtained were 11620.2 RU (Flow cell 1), 10836.5 RU (Flow cell 2), 11605.9 RU (Flow cell 3) and 11333.9 RU (Flow cell 4), and thus were within the specifications. […]\nSPR experiments were performed with the BiacoreT200 instrument (Cytiva). […] The sensorgrams obtained were analyzed with BiacoreT200 Evaluation Software (version 3.1)."}, "[2]": {"target": "T2, non-carboxymethylated PP2Ac (ac-[…]-OH) (Homo sapiens, UniProt P67775)", "T2 construct": "The following 11-mer peptides corresponding to the carboxymethylated or non-methylated carboxy-terminus of PP2A and PP4 catalytic subunits were used as antigens", "assay": "Surface plasmon resonance (Biacore T200), non-carboxymethylated PP2Ac peptide", "assay_type": "binding", "conditions": "SPR", "method": "as §1, with “determined. […] The KD of the binding of 7C10-C5 (or 2A10) to non-carboxymethylated PP2Ac or PP4c could not be determined because at the highest analyte sample concentration (5000 nM) only very weak binding signals were detected indicating KD values of at least >5000 nM or higher. […]” for “determined.”\nSPR experiments were performed with the BiacoreT200 instrument (Cytiva). […] The sensorgrams obtained were analyzed with BiacoreT200 Evaluation Software (version 3.1). […]"}}}
{"molecule": "B1", "values": [{"measurement": "Kd", "setting": "[1]", "result": 132, "unit": "nM"}]}
{"molecule": "B2", "values": [{"measurement": "binding to carboxymethylated PP2Ac stronger than to non-carboxymethylated PP2Ac", "setting": "[2]", "result": "at least 400 fold"}, {"measurement": "binding to non-carboxymethylated PP2Ac", "setting": "[2]", "result": "does not bind to non-carboxymethylated PP2Ac to a measureable extent"}]}
